According to patent US20230183713A1, “SITE-SPECIFIC RECOMBINASES FOR EFFICIENT AND SPECIFIC GENOME EDITING” (TECHNISCHE UNIVERSITÄt DRESDEN, published 2023):
Residue numbers refer to the chain shown, from its start. Names and notes keep the numbering of the source.

T1: Cre recombinase monomer with Q311R mutation
T1 chain: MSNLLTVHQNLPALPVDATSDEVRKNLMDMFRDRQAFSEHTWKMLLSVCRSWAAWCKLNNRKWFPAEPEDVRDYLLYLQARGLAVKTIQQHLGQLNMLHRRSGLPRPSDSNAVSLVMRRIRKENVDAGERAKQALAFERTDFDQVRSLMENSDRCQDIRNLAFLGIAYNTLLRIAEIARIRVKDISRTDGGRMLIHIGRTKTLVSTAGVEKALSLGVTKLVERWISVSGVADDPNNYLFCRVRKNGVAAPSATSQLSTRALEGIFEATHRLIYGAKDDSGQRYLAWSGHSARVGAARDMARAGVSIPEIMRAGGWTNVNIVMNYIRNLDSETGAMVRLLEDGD

T2: Cre recombinase monomer with K201R mutation
T2 chain: T1 chain with K201R, R311Q

T3: Cre recombinase monomer with E176V mutation
T3 chain: T1 chain with E176V, R311Q

T4: Cre recombinase monomer with E176H mutation
T4 chain: T1 chain with E176H, R311Q

B1: Cre recombinase monomer with E176Y mutation (protein)
chain: T1 chain with E176Y, R311Q
B2: Cre recombinase monomer with H289I mutation (protein)
chain: T1 chain with H289I, R311Q
B3: Cre recombinase monomer with E176L mutation (protein)
chain: T1 chain with E176L, R311Q
B4: Cre recombinase monomer with R292S mutation (protein)
chain: T1 chain with R292S, R311Q
B5: Cre recombinase monomer with R173A mutation (protein)
chain: T1 chain with R173A, R311Q
B6: Cre recombinase monomer with K201H mutation (protein)
chain: T1 chain with K201H, R311Q
B7: Cre recombinase monomer with R173D mutation (protein)
chain: T1 chain with R173D, R311Q
B8: Cre recombinase monomer with K201G mutation (protein)
chain: T1 chain with K201G, R311Q
B9: Cre recombinase monomer with E176M mutation (protein)
chain: T1 chain with E176M, R311Q
B10: Cre recombinase monomer with R173Y mutation (protein)
chain: T1 chain with R173Y, R311Q
B11: Cre recombinase monomer with R292L mutation (protein)
chain: T1 chain with R292L, R311Q
B12: Cre recombinase monomer with R173K mutation (protein)
chain: T1 chain with R173K, R311Q
B13: Cre recombinase monomer with K201T mutation (protein)
chain: T1 chain with K201T, R311Q
B14: Cre recombinase monomer with K201A mutation (protein)
chain: T1 chain with K201A, R311Q
B15: Cre recombinase monomer with R292F mutation (protein)
chain: T1 chain with R292F, R311Q
B16: Cre recombinase monomer with R173E mutation (protein)
chain: T1 chain with R173E, R311Q
B17: Cre recombinase monomer with R292W mutation (protein)
chain: T1 chain with R292W, R311Q
B18: Cre recombinase monomer with R292C mutation (protein)
chain: T1 chain with R292C, R311Q
B19: Cre recombinase monomer with K201R mutation (protein)
chain: T1 chain with K201R, R311Q
B20: Cre recombinase monomer with R292G mutation (protein)
chain: T1 chain with R292G, R311Q
B21: Cre recombinase monomer with R292V mutation (protein)
chain: T1 chain with R292V, R311Q
B22: Cre recombinase monomer with K201I mutation (protein)
chain: T1 chain with K201I, R311Q
B23: Cre recombinase monomer with R292Q mutation (protein)
chain: T1 chain with R292Q, R311Q
B24: Cre recombinase monomer with R292I mutation (protein)
chain: T1 chain with R292I, R311Q
B25: Cre recombinase monomer with H289R mutation (protein)
chain: T1 chain with H289R, R311Q
B26: Cre recombinase monomer with R292N mutation (protein)
chain: T1 chain with R292N, R311Q
B27: Cre recombinase monomer with K201M mutation (protein)
chain: T1 chain with K201M, R311Q
B28: Cre recombinase monomer with K201S mutation (protein)
chain: T1 chain with K201S, R311Q
B29: Cre recombinase monomer with R292H mutation (protein)
chain: T1 chain with R292H, R311Q
B30: Cre recombinase monomer with R292P mutation (protein)
chain: T1 chain with R292P, R311Q
B31: Cre recombinase monomer with R173V mutation (protein)
chain: T1 chain with R173V, R311Q
B32: Cre recombinase monomer with R292A mutation (protein)
chain: T1 chain with R292A, R311Q
B33: Cre recombinase monomer with H289D mutation (protein)
chain: T1 chain with H289D, R311Q

Assays:
[1] = biological target: T1, Cre recombinase monomer with Q311R …
[2] = biological target: T2, Cre recombinase monomer with K201R …
[3] = biological target: T3, Cre recombinase monomer with E176V …
[4] = biological target: T4, Cre recombinase monomer with E176H …

Row | Protein | Median dimer activity (recombination on loxP) [1] | other results
1 | B1 | 79% | Median dimer activity (recombination on loxP) [2]: 39%
2 | B2 | 75% | –
3 | B3 | 40% | –
4 | B4 | 97% | –
5 | B5 | 93% | –
6 | B6 | 94% | –
7 | B7 | 89% | Median dimer activity (recombination on loxP) [3]: 53%; Median dimer activity (recombination on loxP) [4]: 29%
8 | B8 | 90% | –
9 | B9 | 82% | Median dimer activity (recombination on loxP) [2]: 35%
10 | B10 | 92% | Median dimer activity (recombination on loxP) [3]: 35%
11 | B11 | 93% | –
12 | B12 | 84% | –
13 | B13 | 94% | –
14 | B14 | 95% | Median dimer activity (recombination on loxP) [2]: 64%
15 | B15 | 42% | –
16 | B16 | 80% | Median dimer activity (recombination on loxP) [4]: 32%
17 | B17 | 88% | –

Row | Protein | Median dimer activity (recombination on loxP) [1] | other results
18 | B18 | 93% | –
19 | B19 | 98% | –
20 | B20 | 97% | –
21 | B21 | 95% | –
22 | B22 | 86% | –
23 | B23 | 70% | –
24 | B24 | 97% | –
25 | B25 | 79% | –
26 | B26 | 95% | –
27 | B27 | 93% | Median dimer activity (recombination on loxP) [2]: 76%
28 | B28 | 95% | –
29 | B29 | 88% | –
30 | B30 | 76% | –
31 | B31 | 92% | Median dimer activity (recombination on loxP) [3]: 53%
32 | B32 | 96% | –
33 | B33 | 97% | –
